The target of the test is paclitaxel stabilized microtubules (UniProt P02550). The experiment in a line: co-sedimentation; tau 0-10 μM mixed with paclitaxel stabilized microtubules (1.6 μM tubulin dimers, 20 μM paclitaxel) in 80 mM PIPES pH 7.0, 2 mM MgCl2, 0.5 mM EGTA; 30 min at room temperature; 100,000 x g for 5 min at 23°C; tau in the pellet measured by gel densitometry or western blot; noncooperative single-site fit; unphosphorylated and GSK-3β phosphorylated tau.
Chain of UniProt P02550 (P02550 whole entry, looked up): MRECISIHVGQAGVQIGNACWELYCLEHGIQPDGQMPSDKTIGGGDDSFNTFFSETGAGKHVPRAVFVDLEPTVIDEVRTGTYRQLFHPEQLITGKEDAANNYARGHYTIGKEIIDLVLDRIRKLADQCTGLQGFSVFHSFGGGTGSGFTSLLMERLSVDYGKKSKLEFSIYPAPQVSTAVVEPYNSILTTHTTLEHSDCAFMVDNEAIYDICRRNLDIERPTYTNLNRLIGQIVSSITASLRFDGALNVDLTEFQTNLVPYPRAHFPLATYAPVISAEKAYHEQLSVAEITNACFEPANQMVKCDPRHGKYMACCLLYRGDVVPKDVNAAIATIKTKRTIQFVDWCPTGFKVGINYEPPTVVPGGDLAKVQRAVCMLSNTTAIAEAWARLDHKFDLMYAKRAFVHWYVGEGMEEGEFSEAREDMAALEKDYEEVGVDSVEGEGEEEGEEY

“GSK-3β phosphorylated tau isoform 1N3R (from UniProt P10636-4 1-381) (natural protein)” displayed a fold decrease in microtubule affinity upon GSK-3β phosphorylation, against the unphosphorylated isoform of 3 fold.

Take “GSK-3β phosphorylated tau isoform 1N4R (from UniProt P10636-7 1-412) (natural protein)”: the fold decrease in microtubule affinity upon GSK-3β phosphorylation, against the unphosphorylated isoform came out at 3 fold.

(Values after article PMC2683827.)
